The subject of the series is MS2 coat protein. Nature of the series: apparent KD of MS2 coat protein; designed switch direction (-1 OFF switch, 1 ON switch): -1; higher = weaker reporter binding. Summed up:
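The apparent KD reported per design is the median over clusters of curve fits to normalised cluster fluorescence. The RNA switches were transcribed on Illumina chips by stalled E. coli RNA polymerase. SNAP-549-labelled MS2 coat protein was titrated from 0.7 or 1.5 nM, doubling up to 3 µM, in Tris-HCl pH 7.5 buffer containing KCl, MgCl2, BSA, DTT, tRNA and Tween-20, with no input, 200 uM small-molecule ligand, or an oligonucleotide input.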

Setting [1] is: input ligand: microRNA oligo, concentration not stated.
Setting [2] is: Eterna round: R95, input ligand: FMN 200 uM.
The mark [3] stands for this setting: Eterna round: R95, input ligand: microRNA oligo, concentration not stated.
[4] abbreviates: Eterna round: R95, input ligand: none.

Regarding “UUUUUAUAUGAAGGAUAUACUUAACAUGAGGAUCACCCAUGUGGUGUUGUGAGUGAGUGAGUUUAGUAGAAGGUCAAGUAUUCU [JMF's solution 40] (Eterna round: R96, puzzle: Exclusion NG 2)”, the “apparent KD of MS2 coat protein” value is, setting by setting: (input ligand: FMN 200 uM) 575 nM; under setting [1], 306 nM; (input ligand: none) 496 nM.
With “CUCAUGUGAGGAUAUCACCCAAGAGUGAGCAAUCACUAUCAUGAGAAGGCACAUGAGGAUCACCCAUGUUAAAA [Xesoer] (Eterna round: R97, puzzle: Exclusion 4)”, the “apparent KD of MS2 coat protein” value reads like this: (input ligand: FMN 200 uM) 11.5 nM; (input ligand: none) 57.7 nM.
In the case of “ACAUGAGGAUCACCCAUGUGAAAACAAUGGCUGACUUUGAGAUAGGAUAUUGGUGCAUAUCAAACCAAGAAGGGUCAUUACUGG [Deportation 92 - Jieux - Exclusion NG 3] (Eterna round: R96, puzzle: Exclusion NG 3)”, the “apparent KD of MS2 coat protein” value is, setting by setting: (input ligand: FMN 200 uM) 37.5 nM; under setting [1], 32.8 nM; (input ligand: none) 48.2 nM.
As to “CCUAGACAUGAGGAUCACCCAUGUGAGGAUAUGAUGCGAAUAAAGAAAGAAGAAAGCAUCAGAAGGCACAUAUG [Fiskers Ex 1 - 2] (puzzle: Exclusion 1)”, the “apparent KD of MS2 coat protein” value is, setting by setting: under setting [2], 130 nM; under setting [3], 41.2 nM; under setting [4], 49.4 nM.
Regarding “CUCCAGCAAGGAUAUACGUGUCUAAGAAGAGGUCUUAUGCUACAUGAGGAUCACCCAUGUAGAAGGUGCGGACA [EX2 C.2] (Eterna round: R97, puzzle: Exclusion 2)”, the “apparent KD of MS2 coat protein” value by setting is: (input ligand: FMN 200 uM) 14.4 nM; (input ligand: none) 15.4 nM.
In the case of “CGCUGGUGAGGAUAUGGGUGUUUUUACAUGAGGAUCACCCAUGUGGAGUAGCAUGUGGGUCCAGAAGGCGCGGGUG [-24.2, -22.5 kcal, 20% A] (Eterna round: R97, puzzle: Exclusion 5)”, the “apparent KD of MS2 coat protein” value (input ligand: FMN 200 uM) amounted to 682 nM and the “apparent KD of MS2 coat protein” value (input ligand: none) is 435 nM.
For “AAAUACCGGUGAGGAUAUUUUUAAUAGAACUUUAUGAUAUACAUGAGGAUCACCCAUGUUACUUUAAAGAAGGCAUCGGAUAAA [Mat - Exclusion NG 2 - Mod of JL - D88] (Eterna round: R96, puzzle: Exclusion NG 2)”, the “apparent KD of MS2 coat protein” value under setting [1] worked out at 12.1 nM.
On to “ACAAGCUUUUAGAUUUUCAACAUGAGGAUCACCCAUGUUCGUCUUAUGCUCGGGCUUGGGCGGUGUCCGGGUUUGGG [JL TOV1 3.78 sellena mod] (Eterna round: R97, puzzle: Sensor, turn-off variant 1)”, for which the “apparent KD of MS2 coat protein” value is 37.1 nM (input ligand: FMN 200 uM) and 39.2 nM (input ligand: none).
For the sequence “AAUAAUGGAGGAUAUACAUGAGGAUCACCCAUGUGAAUAAAAUAAAUAAAAUGAUAAAGUAGAAGGCCAAAUAA [JMF's solution 2] (puzzle: Exclusion 3)”, the “apparent KD of MS2 coat protein” value is, setting by setting: under setting [2], 42.7 nM; under setting [3], 39.9 nM; under setting [4], 53.6 nM.
As for “AAGGAGUUAGGAUAUCGAAGAAGAAGAAGAAGAAGAAGAAGCGAGAAGGAACAUGAGGAUCACCCAUGUAAGAA [JR_Exclu4_Sub028] (puzzle: Exclusion 4)”, the “apparent KD of MS2 coat protein” value worked out at 32.5 nM under setting [2], 50.5 nM under setting [3] and 41.5 nM under setting [4].
“CACCGGUGAGACAACAUGAGGAUCACCCAUGUGAACAGCUCACAGGAUAUCCAGGCACGAAAGAAGGAGAAGGGUGGCUGACUC [Veuson] (Eterna round: R96, puzzle: Exclusion NG 3)”: the “apparent KD of MS2 coat protein” value is 17.2 nM (input ligand: FMN 200 uM), 13.6 nM under setting [1] and 17.4 nM (input ligand: none).
For the sequence “UUUUUAUAUGAAGGAUAUACUUAACAUGAGGAUCACCCAUGUGGUGUUGUGAGUGAGUGAGUUUAGUAGAAGGUCAAGUAUUUA [JMF's solution 41] (Eterna round: R96, puzzle: Exclusion NG 2)”, the “apparent KD of MS2 coat protein” value runs as follows: (input ligand: FMN 200 uM) 663 nM; under setting [1], 527 nM; (input ligand: none) 380 nM.
Consider “AGCCCUGCAGGAUAUGCCCGGGAUAACAUGAGGAUCACCCAUGUGACCGAUUGUUAUCCUGCAGAAGGGCUAGGGA [JL-EX5-4.11 ViennaUCT mod] (Eterna round: R97, puzzle: Exclusion 5)”, for which the “apparent KD of MS2 coat protein” value (input ligand: FMN 200 uM) amounted to 126 nM and the “apparent KD of MS2 coat protein” value (input ligand: none) was determined as 49 nM.
“UUAGAAUUGUUAGGAUAUUAAUUAUUUUUUAGUAUGAUCUACAUGAGGAUCACCCAUGUUAAAUAUAAGAAGGAACGUUAUAUU [JR_ExcNG2_Sub096] (Eterna round: R96, puzzle: Exclusion NG 2)”: the “apparent KD of MS2 coat protein” value under setting [1] worked out at 49.9 nM.
As to “GCCUUAUCCGUCAGGAUAUACAGCCGCUCCCUGUUGUAGAAGGGACAUGAGGAUCACCCAUGUACGUACCACCG [alecazam8] (Eterna round: R97, puzzle: Brourd's mod of Exclusion 4)”, the “apparent KD of MS2 coat protein” value (input ligand: FMN 200 uM) was determined as 28.1 nM and the “apparent KD of MS2 coat protein” value (input ligand: none) is 29.2 nM.
“AAUAAAGGAGGAUAUACAUGAGGAUCACCCAUGUGAAUAAAAUAAAUAAAAUGAUAAAGUAGAAGGCCUAAUAA [JMF's solution 3] (puzzle: Exclusion 3)”: the “apparent KD of MS2 coat protein” value reads like this: under setting [2], 33.5 nM; under setting [3], 33.3 nM; under setting [4], 49.7 nM.
Regarding “AGUGUGAGGCAGGAUAUGCUAUAUGUACGUAAUGCAGAAGGGUCUACAUGAGGAUCACCCAUGUGUGCGGUUGA [Ex6 #8] (Eterna round: R97, puzzle: Exclusion 6)”, the “apparent KD of MS2 coat protein” value is, setting by setting: (input ligand: FMN 200 uM) 309 nM; (input ligand: none) 289 nM.
With “AUGGGUCCUCACGGAGCUACAUGAGGAUCACCCAUGUGGAUUGAGGAUAUCCACUGCCGACGGCUGGAGAAGGCAGUUUACUGU [Ex NG3 #94] (Eterna round: R96, puzzle: Exclusion NG 3)”, the “apparent KD of MS2 coat protein” value (input ligand: FMN 200 uM) came to 57.5 nM, the “apparent KD of MS2 coat protein” value under setting [1] turned out to be 36 nM and the “apparent KD of MS2 coat protein” value (input ligand: none) is 49.9 nM.
With “CAUUAUGUUGAGGAUAUGCGCCGGAAAACUGACGCAGAAGGCGACACAUGAGGAUCACCCAUGUCAGUUCGCGA [salish99_ex6_r004_424] (Eterna round: R97, puzzle: Exclusion 6)”, the “apparent KD of MS2 coat protein” value was found to be 10.6 nM (input ligand: FMN 200 uM) and 10.6 nM (input ligand: none).
For “UCGAUGUGAGGAUAUAUAUGCAGUAAUCCUUAUAUUUUAUAACUUGAGGAUCACCCAAGUAGAAGGCGCGACGU [JR_Ex2_Sub058] (Eterna round: R97, puzzle: Exclusion 2)”, the “apparent KD of MS2 coat protein” value (input ligand: FMN 200 uM) was 27.3 nM and the “apparent KD of MS2 coat protein” value (input ligand: none) amounted to 31.1 nM.
“CUCAUGUGAGGAUAUGUGAUCUGCCUUCUAUGUAGAUGAUCACAGAAGGCACAUGAGGAUCACCCAUGUAGAUC [Ex4 - 3 - 27] (puzzle: Exclusion 4)”: the “apparent KD of MS2 coat protein” value under setting [3] came to 69.2 nM.
In the case of “AAGAAACGAGGAUAUACAAUUAAGUGAGAGAGGGAAAUGUGACAUGAGGAUCACCCAUGUAGAAGGCGUAAGAG [JR_Exclu2_Sub084] (puzzle: Exclusion 2)”, the “apparent KD of MS2 coat protein” value is 66.2 nM under setting [2], 44.2 nM under setting [3] and 53.5 nM under setting [4].
In the case of “AAGCUGUCAGGAUAUCGUUAAUUUAGUUGUUUGUAUUAGUUCGAGAAGGGACAUGAGGAUCACCCAUGUAUGAA [Ex4 #41] (Eterna round: R97, puzzle: Exclusion 4)”, the “apparent KD of MS2 coat protein” value runs as follows: (input ligand: FMN 200 uM) 62.7 nM; (input ligand: none) 31 nM.
“GAAAACCGGUGAGGAUAUUUAUAAUAGAGCUUUAUGAUAUACAUGAGGAUCACCCAUGUUACUUUAAAGAAGGCAUCGGAAAAG [Mat - Exclusion NG 2 - Mod of JL - D94] (Eterna round: R96, puzzle: Exclusion NG 2)”: the “apparent KD of MS2 coat protein” value (input ligand: FMN 200 uM) came to 19.1 nM, the “apparent KD of MS2 coat protein” value under setting [1] came to 12.5 nM and the “apparent KD of MS2 coat protein” value (input ligand: none) was 18.9 nM.
For the sequence “GAAAAGGUAGGAUAUACGAAAAAAAAGGGUAGAAAAAAAAUACAUGAGGAUCACCCAUGUAGAAGGACCAAAAG [salish99_ex2_r3_060] (puzzle: Exclusion 2)”, the “apparent KD of MS2 coat protein” value reads like this: under setting [2], 24.4 nM; under setting [3], 23.3 nM; under setting [4], 22.5 nM.
“CUACUAGAGACGCGUGGGAACAUGAGGAUCACCCAUGUCAAUGGAGUUUAAACAGGCCCGUCGUUUUGCUCGUCGUG [Eternabot (L2) Solution 41] (Eterna round: R97, puzzle: Sensor, turn-off variant 1)”: the “apparent KD of MS2 coat protein” value was determined as 113 nM (input ligand: FMN 200 uM) and 132 nM (input ligand: none).
Turning to “AGUACUAACACGAAAGUGUUAGUACAAUAAGCUUGUGGAACAUGAGGAUCACCCAUGUCCUCAUAAGCUCGUCUUAG [Mat - Sensor v3 - Turn-off var 2 - D26] (puzzle: Sensor v3, turn-off variant 2)”, the “apparent KD of MS2 coat protein” value under setting [2] came out at 15.9 nM, the “apparent KD of MS2 coat protein” value under setting [3] is 62.3 nM and the “apparent KD of MS2 coat protein” value under setting [4] stood at 13 nM.
With “AAAUAGCAUGAGGAUAUCGAAUUAUAUAUAGUACGAGAAGGCAUGACAUGAGGAUCACCCAUGUUUUGUUGGGA [EX6 #1] (Eterna round: R97, puzzle: Exclusion 6)”, the “apparent KD of MS2 coat protein” value turned out to be 124 nM (input ligand: FMN 200 uM) and 57.5 nM (input ligand: none).
Regarding “CUGCUGGAGUUUCGCUUUGGUCGUACAUGAGGAUCACCCAUGUAGGAUAUGGUAAAAUUCGCCUGCUAGAAGGAUAGAGUGGUC [salish99_ExNG3_r04_620] (Eterna round: R96, puzzle: Exclusion NG 3)”, the “apparent KD of MS2 coat protein” value is 48.1 nM (input ligand: FMN 200 uM), 38.6 nM under setting [1] and 42.3 nM (input ligand: none).
On to “UUUUUGUGAGGAUAUCAGUAGUAAAUAAAUAAAAUUACUACUGAGAAGGCACAUGAGGAUCACCCAUGUUCCUU [salish99_ex3_r3_090] (puzzle: Exclusion 4)”, for which the “apparent KD of MS2 coat protein” value under setting [3] was 14 nM.

For the origin of these results see the supplement of paper PMC9170038.
